# Experimental data: patent publication US20190309079A1 (Regeneron, published 2019)
# T1: extracellular domain of human LEPR (amino acids 22-839 of P48357, Isoform B) with N-terminal myc-myc tag, … (human, UniProt P48357 22-839, GPI anchor at the C-terminus)
# T1 construct: also called HEK293/Mycx2-hLepR(Ecto)-GPI anchored cells
# T1 sequence: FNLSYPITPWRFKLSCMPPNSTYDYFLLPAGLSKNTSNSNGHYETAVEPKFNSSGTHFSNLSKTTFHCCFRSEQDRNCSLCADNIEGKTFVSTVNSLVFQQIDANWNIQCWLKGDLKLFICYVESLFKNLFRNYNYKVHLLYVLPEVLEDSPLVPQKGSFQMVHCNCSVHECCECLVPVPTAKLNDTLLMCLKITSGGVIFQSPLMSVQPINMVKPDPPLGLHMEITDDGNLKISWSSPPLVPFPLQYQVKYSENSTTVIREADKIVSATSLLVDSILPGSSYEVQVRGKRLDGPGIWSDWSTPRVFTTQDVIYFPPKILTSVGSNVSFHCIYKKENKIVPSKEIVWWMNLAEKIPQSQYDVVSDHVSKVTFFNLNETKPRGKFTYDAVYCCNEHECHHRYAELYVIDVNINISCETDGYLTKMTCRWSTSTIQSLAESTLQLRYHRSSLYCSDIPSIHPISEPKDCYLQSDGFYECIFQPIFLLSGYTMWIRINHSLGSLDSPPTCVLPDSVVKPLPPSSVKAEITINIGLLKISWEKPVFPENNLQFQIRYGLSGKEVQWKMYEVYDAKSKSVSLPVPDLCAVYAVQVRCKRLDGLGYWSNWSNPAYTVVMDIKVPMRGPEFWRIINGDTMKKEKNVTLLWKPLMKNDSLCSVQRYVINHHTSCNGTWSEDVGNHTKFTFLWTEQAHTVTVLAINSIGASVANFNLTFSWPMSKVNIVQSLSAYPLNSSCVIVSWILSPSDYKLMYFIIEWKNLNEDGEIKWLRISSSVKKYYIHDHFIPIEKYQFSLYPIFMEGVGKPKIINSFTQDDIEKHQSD
# T2: full length human LEPR (amino acids 1-1165 of P48357, Isoform B) on cells (human, UniProt P48357 22-1165)
# T2 construct: also called HEK293/Stat3-luc/hLEPR-FL; HEK293/Stat3-hLEPR-FL
# T2 sequence: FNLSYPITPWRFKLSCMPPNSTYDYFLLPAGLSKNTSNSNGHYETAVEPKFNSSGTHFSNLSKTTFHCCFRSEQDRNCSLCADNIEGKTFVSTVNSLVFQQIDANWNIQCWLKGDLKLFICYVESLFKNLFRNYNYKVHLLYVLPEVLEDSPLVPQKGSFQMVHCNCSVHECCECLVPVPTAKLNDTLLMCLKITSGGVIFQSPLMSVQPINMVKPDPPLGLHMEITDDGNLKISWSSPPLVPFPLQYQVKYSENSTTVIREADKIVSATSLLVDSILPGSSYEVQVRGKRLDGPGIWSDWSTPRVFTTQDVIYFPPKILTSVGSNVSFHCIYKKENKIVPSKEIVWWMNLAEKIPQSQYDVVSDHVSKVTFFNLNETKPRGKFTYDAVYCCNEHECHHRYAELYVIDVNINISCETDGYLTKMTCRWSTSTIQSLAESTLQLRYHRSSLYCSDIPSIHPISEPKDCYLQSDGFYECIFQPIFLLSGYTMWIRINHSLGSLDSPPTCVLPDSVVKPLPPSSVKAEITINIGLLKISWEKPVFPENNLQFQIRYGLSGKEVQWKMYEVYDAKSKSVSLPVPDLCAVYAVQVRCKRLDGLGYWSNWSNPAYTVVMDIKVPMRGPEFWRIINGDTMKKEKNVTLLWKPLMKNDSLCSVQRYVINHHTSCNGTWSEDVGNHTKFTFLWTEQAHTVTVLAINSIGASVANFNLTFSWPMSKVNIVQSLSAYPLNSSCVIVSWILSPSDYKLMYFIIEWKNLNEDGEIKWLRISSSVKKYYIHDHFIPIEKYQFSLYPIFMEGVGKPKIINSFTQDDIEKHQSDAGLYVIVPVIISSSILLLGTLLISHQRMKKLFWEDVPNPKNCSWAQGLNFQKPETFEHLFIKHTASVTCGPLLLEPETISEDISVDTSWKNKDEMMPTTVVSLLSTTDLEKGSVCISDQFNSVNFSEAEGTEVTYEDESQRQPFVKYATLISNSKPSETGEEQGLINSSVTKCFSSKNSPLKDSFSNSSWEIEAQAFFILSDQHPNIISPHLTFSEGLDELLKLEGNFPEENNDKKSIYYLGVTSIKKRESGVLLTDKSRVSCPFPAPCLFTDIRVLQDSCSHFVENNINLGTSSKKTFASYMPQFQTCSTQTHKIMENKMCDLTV
# B1: H4H16679P2 (antibody, V domains shown)
# VH: QVQLVESGGGVVQPGRSLRLSCTASGFTFSSYAMYWVRQAPGKGLEWVSVIYYDGSYKYYADSVKGRFTISRDNSKNTLYLQMDSLRAEDTAVYYCASYNWNYWYFDFWGRGTLVTVSS
# VL: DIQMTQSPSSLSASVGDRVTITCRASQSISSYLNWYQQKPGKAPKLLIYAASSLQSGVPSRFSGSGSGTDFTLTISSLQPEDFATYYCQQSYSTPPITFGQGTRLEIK
# B2: H4H17321P2 (antibody, V domains shown)
# VH: QVQLVESGGGVVQPGRSLRLSCEASGFSSSDNAMYWVRQAPGKGLEWVSVIYHDGSYKYYEDSVKGRFTIARDNSKNTLYLQMNSLRAEDTAVYYCARYNWNHWYFDVWGRGTLVTVSS
# VL: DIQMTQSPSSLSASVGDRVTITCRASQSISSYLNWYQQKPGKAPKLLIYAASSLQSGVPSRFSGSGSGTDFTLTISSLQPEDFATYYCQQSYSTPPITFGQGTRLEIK
# B3: H4H18446P2 (antibody, human IgG4, V domains shown)
# VH: EVQLVESGGGLVQPGGSLRLSCAASGFTFSNYGMTWVRQAPGKGLEWVSAITGGGGSTYYSNSVKGRFTISRDNSKNTVYLRMNSVRAEDTAVYYCAKYKWNFVDDWGQGTTVTVSS
# VL: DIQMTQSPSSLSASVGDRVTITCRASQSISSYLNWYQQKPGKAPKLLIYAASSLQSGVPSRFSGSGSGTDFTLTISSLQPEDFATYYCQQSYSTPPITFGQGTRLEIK
# notes: human IgG4 Fc
# B4: H4H18417P2 (antibody, V domains shown)
# VH: QVQLVESGGGVVQPGRSLRLSCAASGFTFSTYGMHWVRQAPGKGLEWVSVISYDESNKYYADSVKGRFTISRDNSKNALYLQMNSLRNEDTAVYYCARDRPFGLVTGWFDPWGQGTLVTVSS
# VL: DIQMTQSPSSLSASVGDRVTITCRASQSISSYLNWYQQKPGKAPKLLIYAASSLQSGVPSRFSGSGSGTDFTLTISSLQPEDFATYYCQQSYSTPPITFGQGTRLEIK
# B5: H4H18438P2 (antibody, V domains shown)
# VH: QVQLVESGGGVVQPGRSLRLSCAASGFSFNTYGMHWVRQAPGKGLEWVTIIWYDGSIKYYADSVKGRFTISRDNSKNTLYLQMNSLRAEDTAVYYCARGGYSGYLYFDYWGQGTLVTVSS
# VL: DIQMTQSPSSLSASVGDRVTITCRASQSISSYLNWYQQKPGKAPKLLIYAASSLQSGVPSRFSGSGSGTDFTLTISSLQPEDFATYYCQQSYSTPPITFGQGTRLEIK
# B6: H4H18449P2 (antibody, human IgG4, V domains shown)
# VH: EVQLVESGGGLVQPGGSLRLSCVASGFTFNKYDMHWVRQTTGKGLEWVSGIDTDGDTYYPGSVKGRFTISRENAENSLYLQMNGLRVGDTAVYYCARWPWSGFYGAFDIWGQGTMVTVSS
# VL: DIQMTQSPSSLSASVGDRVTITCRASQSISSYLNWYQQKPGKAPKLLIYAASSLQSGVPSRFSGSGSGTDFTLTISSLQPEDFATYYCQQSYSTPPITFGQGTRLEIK
# notes: human IgG4 Fc
# B7: H4H17319P2 (antibody, V domains shown)
# VH: QVQLVESGGSVVQPGRSLRLSCAASGFTFSTYAMYWVRQTPGKGLEWVAVLYSDGSNKYYIDSVKGRFTISRDTSTNTLYLQMSSLRADDSALYYCARLNWDYWYFDLWGRGTLVTVSS
# VL: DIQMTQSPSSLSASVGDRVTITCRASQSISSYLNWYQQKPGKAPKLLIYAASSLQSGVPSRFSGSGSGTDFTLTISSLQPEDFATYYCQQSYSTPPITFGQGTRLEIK
# notes: also called REGN4461
# B8: H4H16650P2 (antibody, V domains shown)
# VH: QVQLVESGGGVVQPGKSLRLSCVASGFTFSSDAMYWVRQAPGKGLEWVAVIYYDGNYQYYEDSVKGRFTISRDNSQNTLDLQMNSLRVDDTAVYFCARLNWDYWYLDLWGRGTLVTVSS
# VL: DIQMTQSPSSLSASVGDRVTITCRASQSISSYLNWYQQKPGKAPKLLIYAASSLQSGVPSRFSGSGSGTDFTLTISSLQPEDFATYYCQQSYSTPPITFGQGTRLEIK
# B9: H4H18445P2 (antibody, human IgG4, V domains shown)
# VH: QVQLQESGPGLVKPSQTLSLTCTVSGGSISSGGDYWSWIRQLPGKGLEWIGYIYYSGSAYYNPSLKSRGTISIDTSKNQFSLKLTSVTAADTAVYFCVKLRFLEWFLGGWFGPWGQGTLVTVSS
# VL: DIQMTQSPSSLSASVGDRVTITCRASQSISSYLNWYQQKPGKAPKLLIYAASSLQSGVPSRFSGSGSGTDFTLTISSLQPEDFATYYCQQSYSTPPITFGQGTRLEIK
# notes: human IgG4 Fc
# Columns and labels:
# [1] = target: extracellular domain of Macaca fascicularis LEPR (amino acids 22-837 of XP_005543194.1, T827A) fused with the … (Macaca fascicularis; human); assay: cell-based or functional assay
# [2] = target: T3, extracellular domain portion of LEPR protein expressed with a C-terminal human Fc tag (hLEPR.hFc) (human); assay: blocking ELISA, hLeptin coated
# T3 construct: also called dimeric human LEPR
# Experimental: These antibody-protein or protein-protein complexes were then incubated for 1.5 hour at room temperature (RT). […] Samples were developed with a TMB solution (BD Biosciences, #555214; substrate A and B mixed at 1:1 ratio as per manufacturer's instructions) to produce a colorimetric reaction and then neutralized with 1M sulfuric acid before measuring absorbance at 450 nm on a Victor X5 plate reader.
# Data analysis was performed using a sigmoidal dose-response model within Prism™ software (GraphPad).
# [3] = target: T1, extracellular domain of human LEPR …; assay: FACS, 70 nM Ab, HEK293/hLEPR-GPI, no Leptin
# [4] = target: T2, full length human LEPR (amino acids …); assay: FACS, 70 nM Ab, HEK293/Stat3-luc/hLEPR-FL, no Leptin
binder,measurement,setting,value
B1,"EC50 (M); STAT3-Luc reporter, IMR-32/STAT3-Luc/MfLEPR cells",[1],2.49e-10 M
same,500 nM Ab Blocking of 10 nM hLEPR.hFc Binding to hLeptin (% blockade),[2],7%
same,Binding Ratio (normalized to unstained),[3],1080 fold
same,Binding Ratio (normalized to unstained),[4],51 fold
B2,"EC50 (M); STAT3-Luc reporter, IMR-32/STAT3-Luc/MfLEPR cells",[1],3.68e-10 M
same,500 nM Ab Blocking of 10 nM hLEPR.hFc Binding to hLeptin (% blockade),[2],6%
same,Binding Ratio (normalized to unstained),[3],1130 fold
same,Binding Ratio (normalized to unstained),[4],46 fold
B3,500 nM Ab Blocking of 10 nM hLEPR.hFc Binding to hLeptin (% blockade),[2],-5%
B4,500 nM Ab Blocking of 10 nM hLEPR.hFc Binding to hLeptin (% blockade),[2],16%
B5,500 nM Ab Blocking of 10 nM hLEPR.hFc Binding to hLeptin (% blockade),[2],15%
B6,500 nM Ab Blocking of 10 nM hLEPR.hFc Binding to hLeptin (% blockade),[2],8%
B7,"EC50 (M); STAT3-Luc reporter, IMR-32/STAT3-Luc/MfLEPR cells",[1],3.65e-10 M
same,500 nM Ab Blocking of 10 nM hLEPR.hFc Binding to hLeptin (% blockade),[2],9%
same,Binding Ratio (normalized to unstained),[3],1130 fold
same,Binding Ratio (normalized to unstained),[4],47 fold
B8,"EC50 (M); STAT3-Luc reporter, IMR-32/STAT3-Luc/MfLEPR cells",[1],2.66e-10 M
same,500 nM Ab Blocking of 10 nM hLEPR.hFc Binding to hLeptin (% blockade),[2],-7%
same,Binding Ratio (normalized to unstained),[3],707 fold
same,Binding Ratio (normalized to unstained),[4],42 fold
B9,500 nM Ab Blocking of 10 nM hLEPR.hFc Binding to hLeptin (% blockade),[2],28%
